Measured values as given in patent publication US20060110730A1, “Methods and compositions for regulation and manipulation of steroidogenesis” (priority 2002, published 2006).

How the values were obtained:
[1] = system: COS-1 cells; assay: Pregnenolone production of COS-1 cells co-transfected with F2 (cholesterol side-chain cleavage fusion) and StAR constructs; assay type: cell-based, monkey; settings: for increase in steroidogenesis over the StAR-independent level seen with F2 alone: accumulated pregnenolone after 48 h; for steroidogenic activity (in words): pregnenolone in medium
Method: COS-1 cells were grown, transfected and assayed for pregnenolone production as Described (Stocco, D. M. & Clark, B. J. Regulation of the acute production of steroids in steroidogenic cells. Endocr. Rev. 17, 221-244 (1996)), (Bose, H. S., et al. N-218 MLN64, a protein with StAR-like steroidogenic activity is folded and cleaved similarly to StAR. Biochemistry 39, 11722-11731 (2000)). Three independent transfections, each performed in triplicate, were done for each construct.
To determine the location of biological activity of the mitochondrial protein StAR, wild-type and StAR proteins with an N-terminal deletion and StAR proteins fused to a protein that would function to immobilize the StAR protein in one of the four mitochondrial compartments were evaluated for their ability to catalyze steroidogenesis. Nonsteroidogenic COS-I monkey kidney cells were grown, transfected and assayed for pregnenolone production as described (Stocco, D. M. and Clark, B. J., Endocr Rev 17, 221-244 (1996); Bose, H. S., et al., Biochemistry 39, 11722-11731 (2000)). Three independent transfections, each performed in triplicate, were done for each construct. The cells were transfected with a vector expressing full length StAR or a vector expressing N-62 StAR, Tom-StAR, StAR-Tom, Tim44-StAR, or Tim9-StAR. Tom20, Tim9 and Tim44 cDNAs were prepared from human adrenal RNA by RT-PCR. N-62 StAR cDNA including an enterokinase linker fused to 63-285 StAR was derived from a bacterial expression vector (see Artemenko, et al., J. Biol. Chem. 276: 46583-46596 (2001). Tom/StAR is Tom20 fused to 63-285 through GSDDDDK, which contains Bam HI and enterokinase sites (Bam/EK linker). StAR/Tom is 1-285 StAR fused to Tom20 through Eco RI/EK linker (GFDDDDK). Tim9/StAR contains the 25 amino acid mitochondrial leader of cytochrome c oxidase subunit IV (Bose et al, Biochemistry, 37: 9768-9775 (1998)) fused to Tim9 linked to N-30 StAR through the Bam/EK linker. Tim44/StAR is Tim44 fused to 63-285 StAR through the Bam/EK linker. Tom20 has 50 amino-terminal residues embedded in the OMM and 95 residues in the cytoplasm (Abe, Y., et al., Cell 100, 551-560 (2000)). Expression of Tom20 with N-62 StAR fused to its carboxy-terminus (Tom/StAR) affixed StAR to the cytoplasmic side of the OMM. Expression of Tim9, which is normally confined to the IMS (Bauer et al, J. Inher. Metab. Dis. 24: 166-180 (2001)), fused to N-30 StAR (Tim9/StAR) localized StAR to the IMS. Expression of Tim44, which lies on the matrix side of the IMM, fused to N-62 StAR (Tim44/StAR), targeted StAR to the matrix. […]

[2] = system: MA-10 mitochondria; assay: Steroidogenic activity (pregnenolone) of isolated MA-10 mitochondria incubated with StAR constructs from cell-free transcription/translation; assay type: biochemical, mouse
Method: (§1) StAR constructs were bioassayed (Bose, H. S., et al. N-218 MLN64, a protein with StAR-like steroidogenic activity is folded and cleaved similarly to StAR. Biochemistry 39, 11722-11731 (2000)) with MA-10 mitochondria. Linked transcription/translation system was added directly to the mitochondria except when Tim9/StAR was immunoprecipitated with anti-StAR antiserum (Bose, H. S., et al. The active form of the steroidogenic acute regulatory protein, StAR, appears to be a molten globule. Proc. Natl Acad. Sci. USA 96, 7250-7255 (1999)), collected with protein A-sepharose CL-4B (Pharmacia), washed, dissociated from the sepharose-antibody complex at pH 3.0, neutralized and added directly to mitochondria. Immunoassays of pregnenolone were performed after incubation at 378 C. for 1 h; immunoblotting was performed as described (Bose, H. S., et al. N-218 MLN64, a protein with StAR-like steroidogenic activity is folded and cleaved similarly to StAR. Biochemistry 39, 11722-11731 (2000)).
as §1, with “al.,” for “al. N-218 MLN64, a protein with StAR-like steroidogenic activity is folded and cleaved similarly to StAR.”, “al., Proc” for “al. The active form of the steroidogenic acute regulatory protein, StAR, appears to be a molten globule. Proc.”, “Acad Sci” for “Acad. Sci.”, “harvested” for “collected”, “37°” for “378 C.”

[3] = system: MA-10 cell mitochondria; assay: Mitochondrial import and cleavage kinetics of StAR constructs; assay type: biochemical, mouse; settings: 26° C., phosphorimager quantitation of uncleaved and cleaved imported protein
From the text: StAR constructs were cloned into the BglII/EcoRI site of pSP6, transcribed with SP6 RNA polymerase (Promega) and translated with [35S]methionine as described (Chuck, S. & Lingappa, V. Apolipoprotein B intermediates. Nature 356, 115-116 (1992)). Mitochondria, isolated from 5 £ 106 MA-10 or COS-1 cells by hypotonic shock and homogenization (Bose, H. S., et al. N-218 MLN64, a protein with StAR-like steroidogenic activity is folded and cleaved similarly to StAR. Biochemistry 39, 11722-11731 (2000)) were suspended in […] of 125 mM sucrose, 1 mM ATP, 1 mM NADH, 50 mM KCl, 0.05 mM ADP, 2 mM DTT, 5 mM Na-succinate, 2 mM Mg(OAc)2, 2 mM KH2PO4 and 10 mM HEPES buffer at pH 7.4. Mitochondria (50 ml) and 1 ml of the transcription/translationmix were incubated at 268 C. for various times; import was terminated with 1 ml 1 mM mCCCP (Calbiochem). Some mitochondria were extracted with fresh 100 mM Na2CO3, pH 11.5, for 15 min at 48 C. and spun at 15,000 g for 15 min at 48 C. to pellet membranes. Some membranes were incubated with 0.1% digitonin (Sigma) for 15 min at 48 C. and spun at 144,000 g for 1 h at 48 C. to pelletOMMfragments. […] Analysis was by SDS-polyacrylamide gel electrophoresis (SDS-PAGE) and phosphorimager quantification (Molecular Dynamics, Storm 860). […]

Molecule	increase in steroidogenesis over the StAR-independent level seen with F2 alone [1]	steroidogenic activity (in words) [1]	steroidogenic activity (in words) ([1]; listed as full-length (1-285) StAR)	increase in steroidogenesis ([2]; MA-10 mitochondria incubated with cell-free transcription/translation system expressing the construct, versus control system)	activity of MA-10 cell mitochondria (in words) ([2]; equal amounts of each protein added, 1 h)	steroidogenic activity of reconstituted mitochondria (in words) ([2]; mitochondria reconstituted from OMM and mitoplast fractions)	import speed (ranking) [3]
CC(C)CC[C@@H](O)[C@@H](C)[C@H]1CC[C@H]2[C@@H]3CC=C4C[C@@H](O)CC[C@]4(C)[C@H]3CC[C@]12C [22R-OH-cholesterol, 22R-hydroxycholesterol, reference compound]	~20 fold	–	–	–	–	–	–
full-length StAR: full-length (1-285) steroidogenic acute regulatory protein (protein, UniProt P49675 1-285, looked up, full-length, full-length (1-285) steroidogenic acute regulatory protein) MLLATFKLCAGSSYRHMRNMKGLRQQAVMAISQELNRRALGGPTPSTWINQVRRRSSLLGSRLEETLYSDQELAYLQQGEEAMQKALGILSNQEGWKKESQQDNGDKVMSKVVPDVGKVFRLEVVVDQPMERLYEELVERMEAMGEWNPNVKEIKVLQKIGKDTFITHELAAEAAGNLVGPRDFVSVRCAKRRGSTCVLAGMATDFGNMPEQKGVIRAEHGPTCMVLHPLAGSPSKTKLTWLLSIDLKGWLPKSIINQVLSQTQVDFANHLRKRLESHPASEARC	6 fold	equivalent at all times measured after transfection	about half the maximal capacity of the cells	~6 fold	equally active	active	Scc/N-62 StAR>>Scc/N-30 StAR>full-length StAR
